From publication PMC10929410 come the findings set out here.

The test addresses human Toll-like receptor 5 on HEK-Blue-hTLR5 reporter cells (human) (UniProt O60602).
UniProt O60602, sequence (O60602 21-858): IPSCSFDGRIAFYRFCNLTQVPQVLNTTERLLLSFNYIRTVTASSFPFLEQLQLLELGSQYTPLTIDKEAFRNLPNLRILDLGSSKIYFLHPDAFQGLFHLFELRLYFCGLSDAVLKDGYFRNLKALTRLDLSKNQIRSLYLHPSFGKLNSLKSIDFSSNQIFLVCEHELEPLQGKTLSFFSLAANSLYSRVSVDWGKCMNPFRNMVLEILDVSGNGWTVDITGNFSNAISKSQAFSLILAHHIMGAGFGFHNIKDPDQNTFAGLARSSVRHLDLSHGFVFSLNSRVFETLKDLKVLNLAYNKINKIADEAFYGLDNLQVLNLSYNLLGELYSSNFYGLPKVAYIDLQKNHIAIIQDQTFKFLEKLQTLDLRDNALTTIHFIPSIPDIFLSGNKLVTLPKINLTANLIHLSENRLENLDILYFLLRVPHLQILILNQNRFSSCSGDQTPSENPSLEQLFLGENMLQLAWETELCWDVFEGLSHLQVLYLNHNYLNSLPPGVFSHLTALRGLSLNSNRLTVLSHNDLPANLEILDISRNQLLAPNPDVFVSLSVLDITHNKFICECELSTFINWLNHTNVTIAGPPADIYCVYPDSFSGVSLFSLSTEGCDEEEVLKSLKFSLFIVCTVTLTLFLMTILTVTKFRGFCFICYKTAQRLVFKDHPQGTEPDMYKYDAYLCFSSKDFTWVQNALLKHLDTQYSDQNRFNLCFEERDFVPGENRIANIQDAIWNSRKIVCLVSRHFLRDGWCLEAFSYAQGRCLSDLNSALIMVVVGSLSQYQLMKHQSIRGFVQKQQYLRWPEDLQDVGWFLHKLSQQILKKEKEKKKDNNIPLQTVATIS

Regarding “deglycosylated native FlaA (from UniProt P21184 1-394) (natural protein)”, the EC50 of TLR5 activation (SEAP, OD 620 nm) in HEK-Blue-hTLR5 reporter cells, 10 pg/mL to 10 µg/mL, 24 h is 0.291 µg/mL.

The molecule “native FlaA (flagellin type A, glycosylated) of Pseudomonas aeruginosa strain PAK (from UniProt P21184 1-394) (natural protein)” returned an EC50 of TLR5 activation (SEAP, OD 620 nm) in HEK-Blue-hTLR5 reporter cells, 10 pg/mL to 10 µg/mL, 24 h of 0.0021 µg/mL. Still for that read-out and setting: to “recombinant FlaA (non-glycosylated) (from UniProt P21184 1-394) (natural protein)” belongs 0.0415 µg/mL.

B1: native FlaB (flagellin type B, glycosylated) of Pseudomonas aeruginosa strain PAO1 (natural protein)
chain: MALTVNTNIASLNTQRNLNASSNDLNTSLQRLTTGYRINSAKDDAAGLQISNRLSNQISGLNVATRNANDGISLAQTAEGALQQSTNILQRIRDLALQSANGSNSDADRAALQKEVAAQQAELTRISDTTTFGGRKLLDGSFGTTSFQVGSNAYETIDISLQNASASAIGSYQVGSNGAGTVASVAGTATASGIASGTVNLVGGGQVKNIAIAAGDSAKAIAEKMDGAIPNLSARARTVFTADVSGVTGGSLNFDVTVGSNTVSLAGVTSTQDLADQLNSNSSKLGITASINDKGVLTITSATGENVKFGAQTGTATAGQVAVKVQGSDGKFEAAAKNVVAAGTAATTTIVTGYVQLNSPTAYSVSGTGTQASQVFGNASAAQKSSVASVDISTADGAQNAIAVVDNALAAIDAQRADLGAVQNRFKNTIDNLTNISENATNARSRIKDTDFAAETAALSKNQVLQQAGTAILAQANQLPQAVLSLLR
modifications: simple O-glycan without rhamnose, attached via deoxyhexosamine
B1 displayed an EC50 of TLR5 activation (SEAP, OD 620 nm) in HEK-Blue-hTLR5 reporter cells, 10 pg/mL to 10 µg/mL, 24 h of 0.0444 µg/mL.

B2: recombinant FlaB (non-glycosylated) (natural protein)
chain: MALTVNTNIASLNTQRNLNASSNDLNTSLQRLTTGYRINSAKDDAAGLQISNRLSNQISGLNVATRNANDGISLAQTAEGALQQSTNILQRIRDLALQSANGSNSDADRAALQKEVAAQQAELTRISDTTTFGGRKLLDGSFGTTSFQVGSNAYETIDISLQNASASAIGSYQVGSNGAGTVASVAGTATASGIASGTVNLVGGGQVKNIAIAAGDSAKAIAEKMDGAIPNLSARARTVFTADVSGVTGGSLNFDVTVGSNTVSLAGVTSTQDLADQLNSNSSKLGITASINDKGVLTITSATGENVKFGAQTGTATAGQVAVKVQGSDGKFEAAAKNVVAAGTAATTTIVTGYVQLNSPTAYSVSGTGTQASQVFGNASAAQKSSVASVDISTADGAQNAIAVVDNALAAIDAQRADLGAVQNRFKNTIDNLTNISENATNARSRIKDTDFAAETAALSKNQVLQQAGTAILAQANQLPQAVLSLLR
For the molecule B2, the EC50 of TLR5 activation (SEAP, OD 620 nm) in HEK-Blue-hTLR5 reporter cells, 10 pg/mL to 10 µg/mL, 24 h worked out at 104.

B3: deglycosylated native FlaB (natural protein)
chain: MALTVNTNIASLNTQRNLNASSNDLNTSLQRLTTGYRINSAKDDAAGLQISNRLSNQISGLNVATRNANDGISLAQTAEGALQQSTNILQRIRDLALQSANGSNSDADRAALQKEVAAQQAELTRISDTTTFGGRKLLDGSFGTTSFQVGSNAYETIDISLQNASASAIGSYQVGSNGAGTVASVAGTATASGIASGTVNLVGGGQVKNIAIAAGDSAKAIAEKMDGAIPNLSARARTVFTADVSGVTGGSLNFDVTVGSNTVSLAGVTSTQDLADQLNSNSSKLGITASINDKGVLTITSATGENVKFGAQTGTATAGQVAVKVQGSDGKFEAAAKNVVAAGTAATTTIVTGYVQLNSPTAYSVSGTGTQASQVFGNASAAQKSSVASVDISTADGAQNAIAVVDNALAAIDAQRADLGAVQNRFKNTIDNLTNISENATNARSRIKDTDFAAETAALSKNQVLQQAGTAILAQANQLPQAVLSLLR
modifications: treated with trifluoromethanesulfonic acid to remove the O-glycans
B3 returned an EC50 of TLR5 activation (SEAP, OD 620 nm) in HEK-Blue-hTLR5 reporter cells, 10 pg/mL to 10 µg/mL, 24 h; the sentence prints the label dnFlaA, taken as dnFlaB from the context of Fig. 4D of 0.442 µg/mL.
